In patent publication EP4722253A1 (dated 2026):

T1: FcγRIIa (UniProt P12318 34-217)
T1 sequence (looked up): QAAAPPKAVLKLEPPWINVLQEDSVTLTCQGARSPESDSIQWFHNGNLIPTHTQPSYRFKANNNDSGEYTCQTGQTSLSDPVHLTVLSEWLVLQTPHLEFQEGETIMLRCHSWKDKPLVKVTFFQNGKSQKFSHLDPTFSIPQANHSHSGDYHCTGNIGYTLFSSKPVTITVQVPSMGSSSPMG


Columns and labels:
[1] = target: T1, FcγRIIa; assay: BLI (Octet HTX), antibody on FAB2G biosensor, FcγRIIa in solution
[2] = target: T2, FcRn (UniProt P55899 24-297); assay: BLI (Octet HTX), antibody on FAB2G biosensor, FcRn in solution, pH 6.0
T2 construct: also called neonatal Fc receptor
T2 sequence (P55899 24-297 limits assumed, form in doubt): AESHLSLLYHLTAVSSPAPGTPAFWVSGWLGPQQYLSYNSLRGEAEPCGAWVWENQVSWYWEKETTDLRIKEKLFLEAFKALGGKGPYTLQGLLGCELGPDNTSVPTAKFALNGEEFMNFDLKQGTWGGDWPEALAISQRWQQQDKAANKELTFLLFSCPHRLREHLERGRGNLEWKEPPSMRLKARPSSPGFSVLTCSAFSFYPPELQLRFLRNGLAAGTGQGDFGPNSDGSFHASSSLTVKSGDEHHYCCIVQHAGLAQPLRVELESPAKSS

[3] = target: T3, FcγRIIIa (UniProt P08637 17-208); assay: BLI (Octet HTX), antibody on FAB2G biosensor, FcγRIIIa in solution
T3 construct: also called FcyRIIIa
T3 sequence (P08637 17-208 limits assumed): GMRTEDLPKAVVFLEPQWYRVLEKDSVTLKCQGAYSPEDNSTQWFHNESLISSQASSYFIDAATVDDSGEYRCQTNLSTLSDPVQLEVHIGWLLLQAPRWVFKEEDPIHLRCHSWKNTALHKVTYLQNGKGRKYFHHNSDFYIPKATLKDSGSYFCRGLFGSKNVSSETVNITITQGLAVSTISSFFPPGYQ

[4] = target: T4, C1q, complement component 1q (UniProt P02745 23-245; P02746 28-253; P02747 29-245); assay: BLI (Octet HTX), antibody on FAB2G biosensor, C1q in solution
T4 construct: also called Clq
T4 sequence (P02745 23-245 limits assumed, chain 1 of 3): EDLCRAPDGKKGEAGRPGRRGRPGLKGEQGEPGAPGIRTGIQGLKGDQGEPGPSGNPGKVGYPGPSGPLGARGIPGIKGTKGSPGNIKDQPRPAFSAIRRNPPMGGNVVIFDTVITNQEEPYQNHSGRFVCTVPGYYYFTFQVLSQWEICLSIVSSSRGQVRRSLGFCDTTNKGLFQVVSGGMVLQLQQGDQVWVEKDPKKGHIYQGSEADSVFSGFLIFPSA
T4 sequence (P02746 28-253 limits assumed, chain 2 of 3): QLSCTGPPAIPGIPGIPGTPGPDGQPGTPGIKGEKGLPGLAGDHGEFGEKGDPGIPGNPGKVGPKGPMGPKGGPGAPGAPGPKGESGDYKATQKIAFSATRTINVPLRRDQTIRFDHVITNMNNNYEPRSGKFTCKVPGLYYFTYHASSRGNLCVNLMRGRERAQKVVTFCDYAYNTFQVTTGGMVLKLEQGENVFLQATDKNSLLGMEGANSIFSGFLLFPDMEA
T4 sequence (P02747 29-245 limits assumed, chain 3 of 3): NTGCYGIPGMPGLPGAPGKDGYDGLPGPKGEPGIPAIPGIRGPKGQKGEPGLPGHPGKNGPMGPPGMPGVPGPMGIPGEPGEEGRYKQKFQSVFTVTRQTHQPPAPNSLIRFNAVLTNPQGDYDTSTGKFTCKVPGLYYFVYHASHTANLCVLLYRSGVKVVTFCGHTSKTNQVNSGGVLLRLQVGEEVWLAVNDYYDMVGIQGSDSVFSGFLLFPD

| Binder | Kd [1] | Kd [2] | Kd [3] | Kd [4] |
| --- | --- | --- | --- | --- |
| Q-SBL-111 (bispecific antibody, human IgG1, kappa, copies: 1 + 1 + 1 + 1) heavy 1: not shown heavy 2: EVQLVESGGGLVQPGGSLRLSCAASGYTFTNYGMNWVRQAPGKGLEWVGWINTYTGEPTYAADFKRRFTFSLDTSKSTAYLQMNSLRAEDTAVYYCAKYPHYYGSSHWYFDVWGQGTLVTVSSASTKGPSVFPLAPSSKSTSGGTAALGCLVKDYFPEPVTVSWNSGALTSGVHTFPAVLQSSGLYSLSSVVTVPSSSLGTQTYICNVNHKPSNTKVDKKVEPKSCDKTHTCPPCPAPELLGGPSVFLFPPKPKDTLMISRTPEVTCVVVDVSHEDPEVKFNWYVDGVEVHNAKTKPREEQYNSTYRVVSVLTVLHQDWLNGKEYKCKVSNKALPAPIEKTISKAKGQPREPQVCTLPPSRREMTKNQVSLWCLVKGFYPSDIAVEWESNGQPENNYKTTPPVLDSDGSFFLYSKLTVDKSRWQQGNVFSCSVMHEALHNHYTQKSLSLSPGK light 1: not shown light 2: not shown | 2040 nM | 690 nM | 490 nM | 30 nM |
| Q-SBL-116 (bispecific antibody, human IgG1, kappa, copies: 1 + 1 + 1 + 1) heavy 1: not shown heavy 2: EVQLVESGGGLVQPGGSLRLSCAASGYTFTNYGMNWVRQAPGKGLEWVGWINTYTGEPTYAADFKRRFTFSLDTSKSTAYLQMNSLRAEDTAVYYCAKYPHYYGSSHWYFDVWGQGTLVTVSSASTKGPSVFPLAPSSKSTSGGTAALGCLVKDYFPEPVTVSWNSGALTSGVHTFPAVLQSSGLYSLSSVVTVPSSSLGTQTYICNVNHKPSNTKVDKKVEPKSCDKTHTCPPCPAPELLGGPSVFLFPPKPKDTLMISRTPEVTCVVVDVSHEDPEVKFNWYVDGVEVHNAKTKPREEQYNSTYRVVSVLTVLHQDWLNGKEYKCKVSNKALPAPIEKTISKAKGQPREPQVCTLPPSRKEMTKNQVSLWCLVKGFYPSDIAVEWESNGQPENNYKTTPPVLDSDGSFFLYSKLTVDKSRWQQGNVFSCSVMHEALHNHYTQKSLSLSPGK light 1: not shown light 2: not shown | 2340 nM | 650 nM | 370 nM | 33 nM |
| Q-SBL-115 (bispecific antibody, human IgG1, kappa, copies: 1 + 1 + 1 + 1) heavy 1: not shown heavy 2: EVQLVESGGGLVQPGGSLRLSCAASGYTFTNYGMNWVRQAPGKGLEWVGWINTYTGEPTYAADFKRRFTFSLDTSKSTAYLQMNSLRAEDTAVYYCAKYPHYYGSSHWYFDVWGQGTLVTVSSASTKGPSVFPLAPSSKSTSGGTAALGCLVKDYFPEPVTVSWNSGALTSGVHTFPAVLQSSGLYSLSSVVTVPSSSLGTQTYICNVNHKPSNTKVDKKVEPKSCDKTHTCPPCPAPELLGGPSVFLFPPKPKDTLMISRTPEVTCVVVDVSHEDPEVKFNWYVDGVEVHNAKTKPREEQYNSTYRVVSVLTVLHQDWLNGKEYKCKVSNKALPAPIEKTISKAKGQPREPQVCTLPPSRERMTKNQVSLWCLVKGFYPSDIAVEWESNGQPENNYKTTPPVLDSDGSFFLYSKLTVDKSRWQQGNVFSCSVMHEALHNHYTQKSLSLSPGK light 1: not shown light 2: not shown | 1970 nM | 690 nM | 290 nM | 18 nM |

Further lines, results first:

| Kd [1] | Kd [2] | Kd [3] | Kd [4] | Binder |
| --- | --- | --- | --- | --- |
| 1620 nM | 670 nM | 330 nM | 16 nM | Q-SBL-131 (bispecific antibody, human IgG1, kappa, copies: 1 + 1 + 1 + 1) heavy 1: not shown heavy 2: EVQLVESGGGLVQPGGSLRLSCAASGYTFTNYGMNWVRQAPGKGLEWVGWINTYTGEPTYAADFKRRFTFSLDTSKSTAYLQMNSLRAEDTAVYYCAKYPHYYGSSHWYFDVWGQGTLVTVSSASTKGPSVFPLAPSSKSTSGGTAALGCLVKDYFPEPVTVSWNSGALTSGVHTFPAVLQSSGLYSLSSVVTVPSSSLGTQTYICNVNHKPSNTKVDKKVEPKSCDKTHTCPPCPAPELLGGPSVFLFPPKPKDTLMISRTPEVTCVVVDVSHEDPEVKFNWYVDGVEVHNAKTKPREEQYNSTYRVVSVLTVLHQDWLNGKEYKCKVSNKALPAPIEKTISKAKGQPREPQVCTLPPSREEMTKNQVSLWCLVKGFYPSDIAVEWESNGQPENNYKTTPPVLFSDGSFFLYSKLTVDKSRWQQGNVFSCSVMHEALHNHYTQKSLSLSPGK light 1: not shown light 2: not shown |
| 1630 nM | 750 nM | 230 nM | 18 nM | Q-SBL-127 (bispecific antibody, human IgG1, kappa, copies: 1 + 1 + 1 + 1) heavy 1: not shown heavy 2: EVQLVESGGGLVQPGGSLRLSCAASGYTFTNYGMNWVRQAPGKGLEWVGWINTYTGEPTYAADFKRRFTFSLDTSKSTAYLQMNSLRAEDTAVYYCAKYPHYYGSSHWYFDVWGQGTLVTVSSASTKGPSVFPLAPSSKSTSGGTAALGCLVKDYFPEPVTVSWNSGALTSGVHTFPAVLQSSGLYSLSSVVTVPSSSLGTQTYICNVNHKPSNTKVDKKVEPKSCDKTHTCPPCPAPELLGGPSVFLFPPKPKDTLMISRTPEVTCVVVDVSHEDPEVKFNWYVDGVEVHNAKTKPREEQYNSTYRVVSVLTVLHQDWLNGKEYKCKVSNKALPAPIEKTISKAKGQPREPQVCTLPPSREEMTKNQVSLWCLVKGFYPSDIAVEWESNGQPENNYKTTPPVLFSDGSFFLYSKLTVDKSRWQQGNVFSCSVMHEALHNHYTQKSLSLSPGK light 1: not shown light 2: not shown |
| 1720 nM | 740 nM | 290 nM | 17 nM | Q-SBL-130 (bispecific antibody, human IgG1, kappa, copies: 1 + 1 + 1 + 1) heavy 1: not shown heavy 2: EVQLVESGGGLVQPGGSLRLSCAASGYTFTNYGMNWVRQAPGKGLEWVGWINTYTGEPTYAADFKRRFTFSLDTSKSTAYLQMNSLRAEDTAVYYCAKYPHYYGSSHWYFDVWGQGTLVTVSSASTKGPSVFPLAPSSKSTSGGTAALGCLVKDYFPEPVTVSWNSGALTSGVHTFPAVLQSSGLYSLSSVVTVPSSSLGTQTYICNVNHKPSNTKVDKKVEPKSCDKTHTCPPCPAPELLGGPSVFLFPPKPKDTLMISRTPEVTCVVVDVSHEDPEVKFNWYVDGVEVHNAKTKPREEQYNSTYRVVSVLTVLHQDWLNGKEYKCKVSNKALPAPIEKTISKAKGQPREPQVCTLPPSREEMTKNQVSLWCLVKGFYPSDIAVEWESNGQPENNYKTTPPVLFSDGSFFLYSKLTVDKSRWQQGNVFSCSVMHEALHNHYTQKSLSLSPGK light 1: not shown light 2: not shown |
| 2120 nM | 580 nM | 380 nM | 24 nM | Q-SBL-137 (bispecific antibody, human IgG1, kappa, copies: 1 + 1 + 1 + 1) heavy 1: not shown heavy 2: EVQLVESGGGLVQPGGSLRLSCAASGYTFTNYGMNWVRQAPGKGLEWVGWINTYTGEPTYAADFKRRFTFSLDTSKSTAYLQMNSLRAEDTAVYYCAKYPHYYGSSHWYFDVWGQGTLVTVSSASTKGPSVFPLAPSSKSTSGGTAALGCLVKDYFPEPVTVSWNSGALTSGVHTFPAVLQSSGLYSLSSVVTVPSSSLGTQTYICNVNHKPSNTKVDKKVEPKSCDKTHTCPPCPAPELLGGPSVFLFPPKPKDTLMISRTPEVTCVVVDVSHEDPEVKFNWYVDGVEVHNAKTKPREEQYNSTYRVVSVLTVLHQDWLNGKEYKCKVSNKALPAPIEKTISKAKGQPREPQVCTLPPSREEMTKNQVSLWCLVKGFYPSDIAVEWESNGQPENNYKTTPPVLDSDGSFFLYSSLTVDKSRWQQGNVFSCSVMHEALHNHYTQKSLSLSPGK light 1: not shown light 2: not shown |
